Data from patent CN113912709A (SHENZHEN NATIONAL CLINICAL RES CENTER FOR INFECTIOUS …, dated 2022).
Positions count from the first letter of the chain named.

B1: VacW-201 (antibody, V domains shown)
VH: EVQLVESGGGLVQPGGSLRLSCAASGFTFSSYWMNWVRQAPGKGLEWVANIKQDGSEKYYVDSVKGRFTISRDNAKNSLYLQMNSLRAEDTAVYYCARMEYPYGGVDYWGQGTLVTVSS
VL: NFMLTQPHSVSESPGKTVTISCTGSSGSIASNYVQWYQQRPGSAPTTVIYEDNQRPSGVPDRFSGSIDSSSNSASLTISGLKTEDEADYYCQSYDSSNRNWVFGGGTKLTVL
B2: VacW-215 (antibody, V domains shown)
VH: EVQLVESGGGLIQPGGSLRLSCAASGFTVSSNYMSWVRQAPGKGLEWVSVIYSGGSTYYADSVKGRFTISRDNSKNTLYLQMNSLRAEDTAVYYCARSTWLRGGFDYWGQGTLVTVSS
VL: B1 VL with R99H, N100F, W101Y, G105T, L109V
B3: VacW-212 (antibody, V domains shown)
VH: B1 VH with G55E, Y80F, A88V, V106I, S119A
VL: B1 VL
B4: VacW-209 (antibody, V domains shown)
VH: QVQLVESGGGVVQPGRSLRLSCAASGFTFSSIAMHWVRQAPGKGLEWVAVMSFDGSIKYYGDSVKGRFTISRDNSKSTLYLQMNSLRAEDTAVYYCARGVQGYYDRSGYYNLDYNYGMDVWGQGTTVTVSS
VL: QSVLTQPPSVSGAPGQRVTISCTGSSSNIGAGYDVHWYQQLPGTAPKLLIYGNSNRPSGVPDRFSGSKSGTSASLAITGLQAEDEADYYCQSYDSSLSGWVFGGGTKLTVL
B5: VacW-105 (antibody, V domains shown)
VH: QVQLVQSGAEVKKPGSSVKVSCKASGGTFRSYTISWVRQAPGQGLEWMGRILPILGIANYAQKFQGRVTITADKSTSTAYMELSSLRSEDTAVYYCARVTGAPVESAAWFDPWGQGTLVTVSS
VL: not shown
B6: VacW-138 (antibody, V domains shown)
VH: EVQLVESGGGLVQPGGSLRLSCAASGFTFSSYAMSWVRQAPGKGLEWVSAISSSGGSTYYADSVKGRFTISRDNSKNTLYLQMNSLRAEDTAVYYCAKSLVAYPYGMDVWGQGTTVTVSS
VL: AIQLTQSPFSLSASVGDRVTITCRASQGISSALAWYQQKPGKAPKLLIYDASSLESGVPSRFSGSGSGTDFTLTISSLQPEDFATYFCQQVDTYQFTFGPGTKVDIK

Columns and labels:
[1] = target: T1, SARS-CoV-2 wild-type RBD protein (SARS-CoV-2, UniProt P0DTC2 319-541); experiment: SPR, Biacore 8K, RBD on CM5 chip, IgG injected, 1:1 model
T1 construct: domain: RBD

[2] = target: SARS-CoV-2 wild-type spike protein (on pseudovirus) (SARS-CoV-2, UniProt P0DTC2 14-1273); experiment: cell-based or functional assay

| Binder | Kd [1] [pM] | 假病毒中和试验 IC50 [2] [µg/mL] |
| --- | --- | --- |
| B1 | 880 | – |
| B2 | 405 | – |
| B3 | 653 | – |
| B4 | 11.3 | 0.03 |
| B5 | 1640 | – |
| B6 | 1100 | – |
